The source of these data is patent publication US20220195070A1.

Usually kon stands for the rate constant with which the complex forms. Higher therefore signals faster complex formation. The term Kd denotes the equilibrium constant for the complex coming apart. Usually koff stands for the rate constant with which the complex falls apart.

In test [1] the target is Anti-hC5 Antibody. Kind of test: sandwich ELISA: SKA antibody coated, Anti-hC5 Antibody in pooled human serum, then human C5, mouse anti-hC5, anti-mouse-POD; incubation 9 min; blank OD 0.028. (In general: In an ELISA, binding on a coated surface is turned into a signal by an enzyme label.)
Chain of Anti-hC5 Antibody (constant, as listed by the source limits assumed): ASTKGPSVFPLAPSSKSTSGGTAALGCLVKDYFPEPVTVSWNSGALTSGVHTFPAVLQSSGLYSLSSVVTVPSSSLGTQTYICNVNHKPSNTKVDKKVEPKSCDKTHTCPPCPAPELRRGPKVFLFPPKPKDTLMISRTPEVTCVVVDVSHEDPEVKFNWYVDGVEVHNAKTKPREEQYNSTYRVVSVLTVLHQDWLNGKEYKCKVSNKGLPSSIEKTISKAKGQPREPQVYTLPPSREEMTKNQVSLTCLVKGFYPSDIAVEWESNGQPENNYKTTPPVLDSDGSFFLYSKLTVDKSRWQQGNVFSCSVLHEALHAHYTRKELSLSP
Test [2] has as its target Anti-hC5 Antibody. Kind of test: SPR (Biacore T200), 25 C, pH 7.4; SKA antibody captured by anti-rabbit IgG, Anti-hC5 Antibody injected 0-800 nM. (SPR reads the build-up and loss of mass on a sensor chip optically.)
Test [3] concerns the target Anti-hC5 Antibody. The experiment in a line: SPR (Biacore T200), 25 C, pH 7.4; SKA antibody captured by anti-rabbit IgG, Anti-hC5 Antibody injected 0-800 nM; *reliability might be low.
Test [4] concerns the target Anti-hC5 Antibody. The experiment in a line: sandwich ELISA: SKA antibody coated, Anti-hC5 Antibody in pooled human serum; OD spiked / OD blank.
Test [5] concerns the target Anti-hC5 Antibody. The experiment in a line: sandwich ELISA: SKA antibody coated, Anti-hC5 Antibody in pooled human serum, then human C5, mouse anti-hC5, anti-mouse-POD; incubation 18 min; blank OD 0.032.
For test [6], the target named is Anti-hC5 Antibody. The experiment in a line: sandwich ELISA: SKA antibody coated, Anti-hC5 Antibody in pooled human serum, then human C5, mouse anti-hC5, anti-mouse-POD; incubation 16 min; blank OD 0.030.
Test [7] deals with Anti-hC5 Antibody. The experiment in a line: sandwich ELISA: SKA antibody coated, Anti-hC5 Antibody in pooled human serum, then human C5, mouse anti-hC5, anti-mouse-POD; incubation 8 min; blank OD 0.027.
Test [8] concerns the target Anti-hC5 Antibody. Kind of test: sandwich ELISA: SKA antibody coated, Anti-hC5 Antibody in pooled human serum, then human C5, mouse anti-hC5, anti-mouse-POD; incubation 14 min; blank OD 0.028.
The target of test [9] is Anti-hC5 Antibody. The experiment in a line: sandwich ELISA: SKA antibody coated, Anti-hC5 Antibody in pooled human serum, then human C5, mouse anti-hC5, anti-mouse-POD; incubation 9 min; blank OD 0.027.
The target of test [10] is Anti-hC5 Antibody. The experiment in a line: sandwich ELISA: SKA antibody coated, Anti-hC5 Antibody in pooled human serum, then human C5, mouse anti-hC5, anti-mouse-POD; incubation 11 min; blank OD 0.027.
The target in test [11] is Anti-hC5 Antibody. Kind of test: sandwich ELISA: SKA antibody coated, Anti-hC5 Antibody in pooled human serum, then human C5, mouse anti-hC5, anti-mouse-POD; incubation 8 min; blank OD 0.026.
For test [12], the target named is Anti-hC5 Antibody. The experiment in a line: sandwich ELISA: SKA antibody coated, Anti-hC5 Antibody in pooled human serum, then human C5, mouse anti-hC5, anti-mouse-POD; incubation 19 min; blank OD 0.030.
The target of test [13] is Anti-hC5 Antibody. The experiment in a line: sandwich ELISA: SKA antibody coated, Anti-hC5 Antibody in pooled human serum, then human C5, mouse anti-hC5, anti-mouse-POD; incubation 21 min; blank OD 0.032.

Residue numbers refer to the chain shown, from its start.

B1: SKA0009 (antibody, V domains shown)
VH: QSVEESGGRLVTPGTSLTLTCTVSGIDLSSYGMGWVRQAPGMGLEYIGIIYAAGRTYYASWVKGRFIISKTSTTVDLEMTSLTTEDTATYFCARHGSWYAGMDLWGPGTLVTVSS
VL: AIEMTQTPSPVSAAVGGTVSINCQASEDIENYFAWYQQKPGQPPKLLIYDASELASGVPSRFSGSGSGTDFTLTISGVQCDDAATYYCQHADYAASSENTFGGGTEVVVKG
Regarding B1, the OD (Anti-hC5 Antibody spiked) with Anti-hC5 Antibody [1] was 0.089 OD. In addition, in the test with Anti-hC5 Antibody [2], the kon amounted to 76900 M⁻¹ s⁻¹. In the test with Anti-hC5 Antibody [3], this molecule returned a Kd of 0.0184 nM and a koff of 1.41e-06 s⁻¹. In addition, the Signal to noise ratio with Anti-hC5 Antibody [4] is 3.2.

B2: SKA0001 (antibody, V domains shown)
VH: QSVEESGGRLVTPGTPLTLTCTVSGFSLSYYAMNWVRQAPGKGLEWIGIIGISGGTYYASWAKGRFTISKSSSTTVDLKMTSPTTEDTATYFCARGGSAWGDLWGQGTLVTVSS
VL: DIVMTQTPSSVSAAVGGTVTINCQASQSISRLLAWYQQKPGQPPKVLMHDASDLASGVPSRFKGSGSGTEYTLTISDLECADAATYYCQSYYWGSSGDIGYPFGGGTEVVVKG
For B2, the OD (Anti-hC5 Antibody spiked) with Anti-hC5 Antibody [5] amounted to 0.079 OD. The Signal to noise ratio in the test with Anti-hC5 Antibody [4] worked out at 2.5.

B3: SKA0028 (antibody, V domains shown)
VH: QSVEESGGRLVTPGTPLTLTCTASGFTISSYHMSWVRQAPGKGLEWIGIIHGSGNMWYASWAKGRFTISRTSTTVDLEITSPTTEDTATYFCARIRFWASSNYYYFYLWGQGTLVTVSS
VL: ALVMTQTPASVSEPVGGTVTINCQASQNIYSNLAWYQQKPGQRPRLLIYGASNLESGVPSRFRGSGSGTEFTLTISDLECADAATYYCQSAYWGNNNDGAFGGGTEVVVKG
As to B3, the Signal to noise ratio in the test with Anti-hC5 Antibody [4] worked out at 3. The molecule further came in with an OD (Anti-hC5 Antibody spiked) with Anti-hC5 Antibody [6] of 0.091 OD.

B4: SKA0171 (antibody, V domains shown)
VH: QSLEESGGGLVQPEGSLTLSCTASGFSFSSSYYMCWVRQAPGKGLEWIACIYGGNSVITYYANWAKGRFTISETSSTTVTLQMTSLTAADTATYFCAREVHYDYLYTTYGYANLWGPGTLVTVSS
VL: AIKMTQTPASVSAVVGGTVTINCQASETIYSGLAWYQQKPGQPPKLLIYDTANLETGVSSRFKGSGSGTEYTLTISDLECDDAATYFCLYAYYSGGSADNAFGGGTEVVVKG
For B4, the OD (Anti-hC5 Antibody spiked) with Anti-hC5 Antibody [7] came out at 0.106 OD. For the same molecule, in the test with Anti-hC5 Antibody [4], the Signal to noise ratio is 4.

B5: SKA0127 (antibody, V domains shown)
VH: QSVEESGGRLVTPGTPLTLTCTVSGIDLSTYAMTWVRQAPGKGLEYIGYINGGGSAYYASWVNGRFTISKTSTTADLKITSPTTEDTATYFCARGPVGSYHRIWGPGTLVTVSS
VL: ALVMTQTPSSVSEPVGGTVTINCRASEDIESYLAWYQQKPGQPPKLLIYATSNLETGVPSRFKGSGSGTDYTLTISGVQCADAATYYCQGYYELSSIDNNAFGGGTEVVVKG
With B5, in the test with Anti-hC5 Antibody [8], the OD (Anti-hC5 Antibody spiked) turned out to be 0.078 OD. In the test with Anti-hC5 Antibody [2], this molecule showed a Kd of 3.54 nM, a dissociation rate constant (koff) of 0.000254 s⁻¹ and a kon of 71800 M⁻¹ s⁻¹. The Signal to noise ratio with Anti-hC5 Antibody [4] turned out to be 2.8.

B6: SKA0027 (antibody, V domains shown)
VH: QEQLVESGGGLVQPEGSLTLTCTASGFSFSSSDYMCWVRQAPGKGLEWIGCIYTGSGSTYYASWAKGRFTISKTSSTTVTLQMTSLTAADTATFFCARRGDSYSNYSFKLWGPGTLVTVSS
VL: AFELTQTPASVEAAVGGTVTIKCQASQNIYSNLAWYQQKPGQPPKLLIYTASSLASGVSSRFKGSGSGTEFTLTISDLECDDAATYYCQCTYINNGYGNTFGGGTEVVVKG
For B6, the OD (Anti-hC5 Antibody spiked) with Anti-hC5 Antibody [9] came to 0.093 OD. The Signal to noise ratio with Anti-hC5 Antibody [4] is 3.4.

B7: SKA0052 (antibody, V domains shown)
VH: QSLEESGGDLVKSGASLTLTCTASGFSFSSSYYMCWVRQAPGKGLEWIACIYTGSNGDTYYASWANGRFTISKASSTTVTLQMTSLTAADTATYFCARYTYDDDGDYTSFNLWGPGTLVTVSS
VL: ALVMTQTPSSVSADVGGTVTINCQASQNIYRNLAWYQQKPGQRPKLLIYGASNLEPGVPSRFKGSGSGTEFTLTISDLECDDAATYYCQSVGYSGSVDTFFYAFGGGTEVVVKG
Consider B7, for which, in the test with Anti-hC5 Antibody [2], the equilibrium dissociation constant (Kd) is 1.81 nM, the koff was 0.000196 s⁻¹ and the on-rate (kon) is 108000 M⁻¹ s⁻¹. Besides, in the test with Anti-hC5 Antibody [10], the OD (Anti-hC5 Antibody spiked) is 0.098 OD. In the test with Anti-hC5 Antibody [4], the Signal to noise ratio was 3.7.

B8: SKA0117 (antibody, V domains shown)
VH: QSLEESGGDLVKPEGSLTLTCTASGFSFSSSHYMCWVRQAPGKGLEWIACIYAGSSDNTYYASWAKGRFTISKTSSTTVTLQMTSLTAADTATYFCARDTYGYVGYASAGGFFNLWGPGTLVTVSS
VL: ALVMTQTPASVSAAVGGTVTINCQASHNIYSVLAWYQQKPGQRPRLLIYGASNLESGVPSRFKGSGSGTEYTLTISDLECDDAATYYCQSAYYSSSTGDNAFGGGTEVVVKG
B8 displayed an OD (Anti-hC5 Antibody spiked) with Anti-hC5 Antibody [9] of 0.112 OD. Moreover, in the test with Anti-hC5 Antibody [4], the Signal to noise ratio worked out at 4.1.

B9: SKA0141 (antibody, V domains shown)
VH: QSLEESGGDLVKPGASLTLTCTASGFSFSSSYYMCWVRQAPGKGLEWIACIYAGSSGSTYYASWAKGRFTISKTSSTTVTLQMTSLTAADTATYFCARDGDENMLVGGYFNLWGPGTLVTVSS
VL: B8 VL with A9S, V32N, R45K, S96N, T97A, D99Y
The molecule B9 gave an OD (Anti-hC5 Antibody spiked) with Anti-hC5 Antibody [11] of 0.109 OD. Besides, in the test with Anti-hC5 Antibody [4], the Signal to noise ratio stood at 4.2.

B10: SKA0054 (antibody, V domains shown)
VH: QSLEESGGGLVQPEGSLTLTCTASGFSFSSSFWICWVRQAPGKGLEWLACIDAGSSDNTYYANWAKGRFTISKTSSTTVTLQMTSLTDADTATYFCARDRDAAGDAGYGYATSFNLWGPGTLVTVSS
VL: AIDMTQTPSSVSAAVGGTVTINCQASESIYSNLAWYQQKPGQRPKLLIYLASTLASGVPSRFKGSGSGTEFTLTISDLECADAATYYCQSVYYDSRGDTFFWAFGGGTEVVVKG
With B10, the OD (Anti-hC5 Antibody spiked) with Anti-hC5 Antibody [12] was 0.077 OD. Further, in the test with Anti-hC5 Antibody [2], the Kd is 7.22 nM, the koff turned out to be 0.000197 s⁻¹ and the kon turned out to be 27300 M⁻¹ s⁻¹. In addition, the Signal to noise ratio in the test with Anti-hC5 Antibody [4] is 2.6.

B11: SKA0046 (antibody, V domains shown)
VH: QEQLVESGGGLVQPEGSLTLTCTASGFSLSSSNYMWWVRQAPGKGLEWIACIHASSSGDTYYANWAKGRFTISKTSSTTVTLQMTSLTAADTATYFCARGGYIYGDGGYNGVAGFSLWGPGTLVTVSS
VL: DVVMTQTPASVSEPVGGTVTIKCQASETIGNALAWYQQKPGQRPKLLIYGASNLESGVPSRFKGSGSGTEFTLTISDVQCDDAATYYCQSIYYSSSADTFFFPFGGGTEVVVKG
In the test with Anti-hC5 Antibody [2], B11 gave a koff of 5.17e-05 s⁻¹ and a kon of 88500 M⁻¹ s⁻¹. Besides, the OD (Anti-hC5 Antibody spiked) in the test with Anti-hC5 Antibody [13] is 0.075 OD. The molecule further displayed a Kd in the test with Anti-hC5 Antibody [3] of 0.585 nM. Further, the Signal to noise ratio in the test with Anti-hC5 Antibody [4] was found to be 2.3.

B12: SKA0016 (antibody, V domains shown)
VH: QEQLVESGGGLVQPEGSLTLTCTASGFSFSSSDYMCWVRQAPGKGLEWIACIYIGSNGDTFYASWAKGRFTISKTSSTTVTLQMTSLTAADTATYFCARDSRRADDYGTRLDLWGQGTLVTVSS
VL: DIVMTQTPSSVSAAVGGTVTIKCQASQNIYRNLAWYQQKPGQPPKLLIYQASKLESGVPSRFKGSGSGTEFTLTISDLDCDDAASYYCQSISYISSGDTFFWAFGGGTEVVVKG
Consider B12, for which, in the test with Anti-hC5 Antibody [2], the kon stood at 30900 M⁻¹ s⁻¹. In the test with Anti-hC5 Antibody [3], this molecule came in with a Kd of 0.0191 nM and a koff of 5.9e-07 s⁻¹. Further, the Signal to noise ratio in the test with Anti-hC5 Antibody [4] came out at 2.5. Moreover, the OD (Anti-hC5 Antibody spiked) in the test with Anti-hC5 Antibody [6] came to 0.076 OD.
